We go through one molecule from publication PMC5777261 (The Journal of Biological Chemistry, 2017).

Holding throughout (experiment): radioligand binding; HEK293 cells expressing ACKR3-YFP or mutants, pretreated 5 min at 37 °C with 100 μM phenylarsine oxide; 50 pM 125I-CXCL12 tracer in 50 mM HEPES pH 7.4, 5 mM MgCl2, 1 mM CaCl2, 0.2% BSA, with or without unlabeled CXCL12 or CXCL11, 30 min at 37 °C; bound label counted in a γ counter; IC50 taken as proxy for ligand affinity
Common to all, as to conditions: one partner purified

In one assay the target is T1, ACKR3 N127S-YFP (UniProt P25106 1-362, N127S).
T1 construct: ACKR3 (CXCR7) with N127S (Ballesteros-Weinstein 3.35), made by PCR in ACKR3-YFP; also called N127^3.35S; source: HEK293, transiently transfected (polyethyleneimine), on or in cells; not shown: YFP, C-terminal, kept

For the next assay, the target named is T2, ACKR3 Y315A-YFP (UniProt P25106 1-362, Y315A).
T2 construct: ACKR3 (CXCR7) with Y315A (Ballesteros-Weinstein 7.53), made by PCR in ACKR3-YFP; also called Y315^7.53A; source: HEK293, transiently transfected (polyethyleneimine), on or in cells; not shown: YFP, C-terminal, kept

The target in a further assay is T3, ACKR3 N127D-YFP (UniProt P25106 1-362, N127D).
T3 construct: ACKR3 (CXCR7) with N127D (Ballesteros-Weinstein 3.35), made by PCR in ACKR3-YFP; also called N127^3.35D; source: HEK293, transiently transfected (polyethyleneimine), on or in cells; not shown: YFP, C-terminal, kept

The target in a further assay is T4, ACKR3 D90N-YFP (UniProt P25106 1-362, D90N).
T4 construct: ACKR3 (CXCR7) with D90N (Ballesteros-Weinstein 2.50), made by PCR in ACKR3-YFP; also called D90^2.50N; source: HEK293, transiently transfected (polyethyleneimine), on or in cells; not shown: YFP, C-terminal, kept

The target of another assay is T5, ACKR3 N127K-YFP (UniProt P25106 1-362, N127K).
T5 construct: ACKR3 (CXCR7) with N127K (Ballesteros-Weinstein 3.35), made by PCR in ACKR3-YFP; also called N127^3.35K; source: HEK293, transiently transfected (polyethyleneimine), on or in cells; not shown: YFP, C-terminal, kept

The next assay has as its target T6, ACKR3 Y143A-YFP (UniProt P25106 1-362, Y143A).
T6 construct: ACKR3 (CXCR7) with Y143A (Ballesteros-Weinstein 3.51), made by PCR in ACKR3-YFP; also called Y143^3.51A; source: HEK293, transiently transfected (polyethyleneimine), on or in cells; not shown: YFP, C-terminal, kept

The target in the next assay is T7, ACKR3 D141N-YFP (UniProt P25106 1-362, D141N).
T7 construct: ACKR3 (CXCR7) with D141N (Ballesteros-Weinstein 3.49), made by PCR in ACKR3-YFP; also called D141^3.49N; source: HEK293, transiently transfected (polyethyleneimine), on or in cells; not shown: YFP, C-terminal, kept

A further assay addresses T8, ACKR3 R142A-YFP (UniProt P25106 1-362, R142A).
T8 construct: ACKR3 (CXCR7) with R142A (Ballesteros-Weinstein 3.50), made by PCR in ACKR3-YFP; also called R142^3.50A; ACKR3 R142^3.50A; source: HEK293, transiently transfected (polyethyleneimine), on or in cells; not shown: YFP, C-terminal, kept

Assay [1] concerns the target T9, ACKR3-YFP (wildtype ACKR3 fused C-terminally to YFP) (UniProt P25106 1-362).
T9 construct: atypical chemokine receptor 3 (ACKR3, also known as CXCR7); also called CXCR7; receptor-YFP fusion; source: HEK293, transiently transfected (polyethyleneimine), on or in cells; not shown: YFP, C-terminal, kept

T5 sequence (P25106 whole entry N127K): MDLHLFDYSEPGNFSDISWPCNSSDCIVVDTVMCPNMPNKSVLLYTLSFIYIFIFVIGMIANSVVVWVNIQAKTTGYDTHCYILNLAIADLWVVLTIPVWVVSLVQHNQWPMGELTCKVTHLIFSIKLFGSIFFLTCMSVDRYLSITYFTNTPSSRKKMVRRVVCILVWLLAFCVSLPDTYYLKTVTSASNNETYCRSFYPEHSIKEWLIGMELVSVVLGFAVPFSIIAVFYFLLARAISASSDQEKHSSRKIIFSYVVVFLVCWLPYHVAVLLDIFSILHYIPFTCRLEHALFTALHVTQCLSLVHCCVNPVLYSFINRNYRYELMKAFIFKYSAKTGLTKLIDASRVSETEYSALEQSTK
T1 sequence (P25106 whole entry N127S): as the sequence (P25106 whole entry N127K) above, with K127S counted along it
T3 sequence (P25106 whole entry N127D): as the sequence (P25106 whole entry N127K) above, with K127D counted along it
T8 sequence (P25106 whole entry R142A): as the sequence (P25106 whole entry N127K) above, with K127N, R142A counted along it
T2 sequence (P25106 whole entry Y315A): as the sequence (P25106 whole entry N127K) above, with K127N, Y315A counted along it
T9 sequence (P25106 whole entry, the tested form may be a part): as the sequence (P25106 whole entry N127K) above, with K127N counted along it
T6 sequence (P25106 whole entry Y143A): as the sequence (P25106 whole entry N127K) above, with K127N, Y143A counted along it
T4 sequence (P25106 whole entry D90N): as the sequence (P25106 whole entry N127K) above, with D90N, K127N counted along it
T7 sequence (P25106 whole entry D141N): as the sequence (P25106 whole entry N127K) above, with K127N, D141N counted along it

B1: CXCL11 (unlabeled recombinant chemokine) (ligand, human, UniProt O14625 22-94, looked up)
chain: FPMFKRGRCLCIGPGVKAVKVADIEKASIMYPSNNCDKIEVIITLKENKGQRCLNPKSKQARLIIKKVERKNF
notes: chemokine CXCL11 (I-TAC); called human CXCL11 in the text on scavenging by MEFs; also called I-TAC; unlabeled CXCL11; source: recombinant; gift from Amanda Nevins and Brian Volkman or from PeproTech Inc
Regarding B1, the IC50 amounted to 3.7 nM in the assay with ACKR3 N127S-YFP; 19.1 nM with ACKR3 Y315A-YFP; 6.6 nM with ACKR3 N127D-YFP; 35.9 nM with ACKR3 D90N-YFP; 11 nM in the assay with ACKR3 N127K-YFP; 15.4 nM in the assay with ACKR3 Y143A-YFP. The IC50 with ACKR3 D141N-YFP worked out at 4.8 nM; in the assay with ACKR3 R142A-YFP, 44.8 nM; in [1], 39.1 nM. In addition, the “Log IC50” value is -8.5 with ACKR3 N127S-YFP; -7.7 with ACKR3 Y315A-YFP; -8 with ACKR3 N127D-YFP; -7.5 with ACKR3 D90N-YFP; -7.9 with ACKR3 N127K-YFP; -7.8 with ACKR3 Y143A-YFP. Further, the “Log IC50” value in the assay with ACKR3 D141N-YFP was -8.3; in the assay with ACKR3 R142A-YFP, -7.4; in assay [1], -7.4.
